Laboratory results from patent US9388406B2, “System useful for reporting protein-protein interactions in the bacterial periplasm” (Cornell University, priority 2008, dated 2016).

Assays:
scFv-GCN4 = experiment: split β-lactamase protein complementation assay in the periplasm, MBC on ampicillin, scFv-GCN4 with antigen; format: cell-based; conditions: E. coli MC4100; antigen on α Bla fragment paired with scFv-GCN4; versus α-Jun negative control
Protocol: (§1) E. coli MC4100 cells were co-transformed with plasmids pDMB-P1-ωBLA (CmR) and aGS-P2 (KanR), where P1 and P2 represent proteins of interest. Cells were grown overnight at 37° C. in LB medium containing 20 μg/mL chloramphenicol (Cm) and 50 μg/mL kanamycin (Kan). Screening of cells on LB agar was performed by first normalizing overnight cultures by OD600 and then spotting 5 μL, of serially diluted (10-10^6-fold) cells on LB agar plates with […] of ampicillin (Amp). In all cases, the plates were incubated 16 h at 37° C. and then imaged using a ChemiDoc System (BioRad). […] The minimum bacteriocidal concentration was determined as the minimum Amp concentration at which no colonies appeared on the plates.
(§2) It was hypothesized that detecting protein interactions in the periplasm can be used to engineer antibody fragments with in vivo activity in the periplasm. […] The approach used in the present invention was to fuse known interacting protein domains to genes encoding two split β-lactamase fragments using a two-plasmid system (Wehrman, T., et al., “Protein-protein Interactions Monitored in Mammalian Cells Via Complementation of Beta-lactamase Enzyme Fragments,” Proc Natl Acad Sci USA 99:3469-3474 (2002), which is hereby incorporated by reference in its entirety)(see FIG. 2A). […]

Jun [1] = molecular target: T1, Jun (Homo sapiens, UniProt P05412); experiment: split β-lactamase protein complementation assay in the periplasm, spot plating on ampicillin, Fos/Jun leucine zippers; format: cell-based; conditions: Fos on ω fragment, Jun on α fragment of Bla; negative control GCN4
T1 sequence (P05412 280-308 limits assumed, species assumed): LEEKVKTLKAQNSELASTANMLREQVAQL
Protocol: as §1, §2

Jun [2] = molecular target: T1, Jun; conditions: Fos/Jun leucine zippers; Pernelle et al. 1993; cited from earlier work

Molecule | higher MBC (minimum bacteriocidal concentration) on ampicillin (scFv-GCN4) | ampicillin activity in the PCA (Jun [1]) | KD of their interaction (Jun [2])
GCN4-PP: double proline mutant of the GCN4 leucine zipper with reduced homodimerization, antigen of scFv-GCN4 (protein, left off: small tags and cut ends) HPETLVKVKDAEDQLGARVGYIELDLNSGKILESFRPEERFPMMSTFKVLLCGAVLSRVDAGQEQLGRRIHYSQNDLVEYSPVTEKHLTDGMTVRELCSAAITMSDNTAANLLLTTIGGPKELTAFLHNMGDHVTRLDRWEPELNEAIPNDERDTTMPAAMATTLRKLLTGELLEPKVEELLPKNYHLENEVARL | 16 fold |  | 
Fos: Fos leucine zipper, fused to the ω fragment of β-lactamase; interacts with Jun (protein) LQAETDQLEDEKSALQTEIANLLKEKEKLGGGGSGGGGSGGGGSNGRTLASRQQLIDWMEADKVAGPLLRSALPAGWFIADKSGAGERGSRGIIAALGPDGKPSRIVVIYTTGSQATMDERNRQIAEIGASLIKHW |  | well above that of the negative control | nanomolar range
